Two molecules from patent US7507412B2, “Glycoprotein VI fusion proteins” (Merck Patent GmbH, priority 2001, dated 2009) can be followed below.

For assay [1], the target named is T1, collagen type III (Homo sapiens, UniProt P02461).
T1 sequence (P02461 154-1221 limits assumed): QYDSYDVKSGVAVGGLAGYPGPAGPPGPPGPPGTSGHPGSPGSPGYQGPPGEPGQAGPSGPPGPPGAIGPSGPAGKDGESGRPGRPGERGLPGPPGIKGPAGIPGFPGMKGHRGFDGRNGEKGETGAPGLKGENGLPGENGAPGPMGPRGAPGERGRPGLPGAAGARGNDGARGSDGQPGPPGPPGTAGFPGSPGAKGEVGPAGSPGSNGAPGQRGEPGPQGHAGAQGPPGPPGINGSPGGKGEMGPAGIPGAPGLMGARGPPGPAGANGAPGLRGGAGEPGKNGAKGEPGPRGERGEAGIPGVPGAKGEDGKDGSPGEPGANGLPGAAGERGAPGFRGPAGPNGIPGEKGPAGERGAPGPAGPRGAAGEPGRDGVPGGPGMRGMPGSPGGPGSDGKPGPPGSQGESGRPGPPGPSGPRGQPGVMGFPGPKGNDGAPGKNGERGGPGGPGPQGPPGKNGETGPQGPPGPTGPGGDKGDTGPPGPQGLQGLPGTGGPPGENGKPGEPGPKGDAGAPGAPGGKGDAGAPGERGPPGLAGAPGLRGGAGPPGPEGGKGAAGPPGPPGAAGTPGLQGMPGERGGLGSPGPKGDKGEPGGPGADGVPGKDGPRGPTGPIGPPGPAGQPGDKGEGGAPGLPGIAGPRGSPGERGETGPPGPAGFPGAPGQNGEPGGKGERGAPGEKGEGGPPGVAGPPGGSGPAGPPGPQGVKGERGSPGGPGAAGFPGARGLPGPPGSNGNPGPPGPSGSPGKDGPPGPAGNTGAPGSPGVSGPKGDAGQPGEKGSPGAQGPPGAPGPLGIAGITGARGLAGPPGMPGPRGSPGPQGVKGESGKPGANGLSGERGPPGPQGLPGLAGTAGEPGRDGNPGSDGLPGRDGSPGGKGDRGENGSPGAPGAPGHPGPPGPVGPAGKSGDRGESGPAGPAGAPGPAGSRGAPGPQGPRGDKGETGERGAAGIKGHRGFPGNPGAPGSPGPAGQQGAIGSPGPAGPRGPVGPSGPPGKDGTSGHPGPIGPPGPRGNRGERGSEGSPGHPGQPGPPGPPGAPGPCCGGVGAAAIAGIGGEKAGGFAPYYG
The experiment in a line: ELISA: GPVI-Fc binding at collagen-coated microtiter plates. Conditions: HEPES binding buffer pH 7.4, FIG. 4. The source says:
GPVI-Fc, solved in HEPES buffer (pH 7.4) containing 1% BSA and 0.05% Tween 20, was allowed to bind at collagen-coated microtiter plates. The amount of collagen-bound GPVI-Fc was calorimetrically detected by an anti-Fc antibody conjugated with horse radish peroxidase. Non-specific binding was estimated by a collagen non-specific Fc fusion protein applied instead of GPVI-Fc. Data shown as mean (n=2).
In principle, collagen coated microtiter plates are used as a matrix and GPVI-Fc as the ligand. The detection of bound GPVI-Fc is carried out by an anti-Fc antibody conjugated with horse radish peroxidase which binds specifically at the Fc moiety. After addition of peroxidase substrate, the amount of bound GPVI-Fc is reflected by an increase in absorption.
The polystyrol microtiterplates are coated with 50 μl of 20 μg/ml collagen type III suspended in TRIS buffered saline pH 8.0 for 12 h. Non-bound collagen is removed by washing. Afterwards, free protein binding sites are blocked by 5% (w/v) milk powder and 0.05% (v/v) Tween® 20 both solved in HEPES buffer (pH 7.4).
GPVI-Fc, in a concentration range of 0.1-100 nM, is solved in binding buffer (HEPES, 1% (w/v) bovine serum albumin, 0.05% (v/v) Tween® 20, pH 7.4). […]
Fifty μl of GPVI-Fc solution are given into each well. […] Finally, the amount of bound GPVI-Fc is calorimetrically detected by the peroxidase reaction.
A general note: ELISA stands for enzyme-linked immunosorbent assay.

The subject of another assay is human platelets. The experiment in a line: Collagen-induced platelet aggregation, determined turbidometrically. To be noted: GPVI-Fc added prior to collagen, 10 μg/ml collagen, FIG. 6. Type of assay: cell-based. The protocol: Platelet aggregation is turbidometrically determined after the addition of 10 μg/ml collagen (control) and in the presence of different GPVI-Fc concentrations. Data are shown as means (n=4).
The therapeutic relevance for GPVI-antagonists to prevent collagen-induced thromboembolic complications is shown by a GPVI-Fc titration curve (FIG. 6). Briefly, stimulation of human platelets with collagen induces an aggregation within minutes. […] Therefore, collagen trapped by GPVI-Fc is no longer able to induce an aggregation of platelets. Considering the therapeutic relevance of GPVI receptor antagonism the following conclusion can be drawn from the results presented above: • (i) GPVI-Fc itself can be used as a drug to prevent collagen-induced thromboembolic complications. • (ii) Antagonism of the platelet GPVI receptor by low molecular drugs should prevent the collagen-induced aggregation.

Assay [2] deals with T1, collagen type III. The experiment in a line: Binding of GPVI to collagen type III measured by surface plasmon resonance (BIAcore 3000). More on the design: purchased Sigma. The source says: The known interaction of GPVI to Collagen was used to develop a binding test with the BIAcore 3000. The binding of proteins to immobilized ligands can be monitored using the phenomenon of surface plasmon resonance (SPR). This technique can give results regarding the affinity and kinetics of interacting molecules in solution.
In this assay human collagen type III was immobilized on the sensor surface as stated in the methods and purified soluble GPVI was passed over the collagen surface.
(§1) Protein interactions were identified and characterized by SPR technology using the BIAcore® 3000 instrument (BIAcore®, Freiburg, Germany) and methodology (Johnsson and Lindqvist, 1992; Johnsson et al., 1991). Coupling reagents were used according to protocols developed by the supplier. Coupling to the CM 5 sensor chip was done via activated carboxylate groups to free amine groups of human collagen type III (Sigma®). The pH-scouting and the coupling chemistry was performed under standard conditions (Johnsson and Lindqvist, 1992; Johnsson et al., 1991). For coupling the collagen was diluted to 0.125 μg/ml into 10 mM acetate buffer pH 4.5, resulting in 331 RU immobilized material.
(§2) For the binding experiments purified recombinant glycoprotein VI was used. The protein was diluted into 20 mM Hepes, pH 7.4, 150 mM NaCl, 5 mM EDTA, 0.005% Tween® 20. All binding experiments were performed at 25° C. and performed in duplicates.
The titration with glycoprotein VI was performed at concentrations ranging from 0.2 μg/ml to 50 μg/ml.
Total protein concentrations were determined by the BCA method (Pierce) The kinetic of the interaction of GPVI with collagen can be observed in the sensorgram seen in FIG. 7. In the experiment increasing concentrations of purified GPVI were passed over the collagen type III surface.
On the technique in general: Surface plasmon resonance follows binding to a sensor surface in real time, without labels.

Assay [3] addresses T2, human collagen type III (Sigma) (human, UniProt P02461 154-1221, limits assumed).
T2 construct: Purified natural collagen immobilised on the chip (331 RU); also called Collagen type III (human)
T2 sequence (looked up): T1 sequence (P02461 154-1221 limits assumed)
The assay can be described thus: SPR equilibrium analysis, assuming 75000 Da and fully active protein. As for the experimental part: as §1, with “µg/ml” for “μg/ml”
as §2

In assay [4] the target is T2, human collagen type III (Sigma). The experiment in a line: SPR, BIAcore 3000, collagen type III immobilised, GPVI in solution, 25 C. As for the experimental part: as §1, with “µg/ml” for “μg/ml”
as §2

On to “GPVI-Fc: Fusion of extracellular part of GPVI (aa 21 to 269), Cys-Gly-Arg linker and Fc of IgG1, encoded in KL74A”, for which, in the assay with collagen type III [1], the “concentration at which collagen-binding sites are completely occupied (saturation curve)” value was “above 100 nM”. Further, the “suppression of collagen-induced platelet aggregation” value with human platelets is “concentration-dependent reduction of platelet-aggregation”.

B1: purified recombinant glycoprotein VI (receptor, UniProt Q9HCN6 21-269, looked up)
chain: QSGPLPKPSLQALPSSLVPLEKPVTLRCQGPPGVDLYRLEKLSSSRYQDQAVLFIPAMKRSLAGRYRCSYQNGSLWSLPSDQLELVATGVFAKPSLSAQPGPAVSSGGDVTLQCQTRYGFDQFALYKEGDPAPYKNPERWYRASFPIITVTAAHSGTYRCYSFSSRDPYLWSAPSDPLELVVTGTSVTPSRLPTEPPSPVAEFSEATAELTVSFTNEVFTTETSRSITASPKESDSPAGPARQYYTKGN
notes: also called GPVI; purified soluble GPVI
A word on the Kd: it is the free concentration of one partner at which half of the binding sites on the other are occupied at equilibrium, for simple one-to-one binding. High values mean a looser complex, low ones a tighter complex. The koff is a measure of how fast the partners let go of each other. Read a low koff as slow dissociation. Take B1: in the assay with collagen type III [2] (25° C.), the “dissociation rate constant from the collagen surface” value was determined as 0.003 s⁻¹. The “time until binding reaches saturation” value with collagen type III [2] (25° C., GPVI 0.2-50 μg/ml) was “about 200 seconds”. Moreover, in the assay with collagen type III [2] (equilibrium binding signal, non linear fit, 1:1 binding model, FIG. 8), the “half maximal concentration of saturation for the GPVI/collagen interaction” value was found to be 9 µg/mL. For the same molecule, the Kd in assay [3] was roughly 120 nM. Moreover, in assay [4], the koff was found to be 0.003 s⁻¹.
